What was measured:
recombinant LILRB1 ECD [1] = target: T1, recombinant LILRB1 ECD (human, UniProt Q8NHL6 24-461); assay: ELISA, LILRB1 ECD binding to HLA-G-Fc
T1 construct: also called biotinylated LILRB1 ECD
Method: (§1) HLA-G inhibition was tested by ELISA. 384-well Maxisorp plates were coated with 2 ug/mL B2M-HLA-G fused to a mouse IgG2a-Fc and the plates were blocked with 2% (w/v) BSA in PBST. […] 15 ul of the antibody dilution series (300 nM to 0.3 nM) were mixed with 30 μL of the pre-mixed LILRB/Avidin-HRP solution (final antibody concentration 100 nM to 0.1 nM) and incubated for 1 h at room temperature. After three wash cycles with PBST, 20 μL of the antibody/LILRB/Avidin-HRP solution was transferred to the plate with immobilized HLA-G and incubated for 15 min at room temperature. After three wash cycles with PBST, residual LILRB binding to HLA-G was detected by developing the ELISA with TMB substrate.

recombinant LILRA1 ECD = target: T2, recombinant LILRA1 ECD (human, UniProt O75019 17-461); assay: BLI, IgG on AHC sensor, ECD in solution
T2 construct: whole canonical entry named; also called LILA1
T2 sequence (O75019 17-461 limits assumed): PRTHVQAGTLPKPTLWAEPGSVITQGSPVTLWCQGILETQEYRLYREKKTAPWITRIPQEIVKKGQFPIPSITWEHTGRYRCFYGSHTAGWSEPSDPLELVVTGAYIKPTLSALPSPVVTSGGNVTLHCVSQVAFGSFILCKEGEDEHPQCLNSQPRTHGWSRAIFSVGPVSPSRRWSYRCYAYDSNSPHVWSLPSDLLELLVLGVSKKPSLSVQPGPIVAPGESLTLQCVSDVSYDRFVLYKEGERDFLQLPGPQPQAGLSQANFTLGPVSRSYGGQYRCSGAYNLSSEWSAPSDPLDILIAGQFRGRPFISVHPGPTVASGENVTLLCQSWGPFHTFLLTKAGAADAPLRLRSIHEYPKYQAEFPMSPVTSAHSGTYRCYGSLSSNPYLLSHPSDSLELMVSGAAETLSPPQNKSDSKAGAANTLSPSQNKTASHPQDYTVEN
Method: (§2) Briefly, IgGs were captured on anti-human capture (AHC) biosensors (Sartorius). […] Subsequently, the sensors were dipped into 1× Kinetics Buffer to measure the dissociation over 420 s. All sensorgrams were double referenced against 1× Kinetics Buffer and unloaded […] sensors to subtract sensor drifts and potential reference binding of the analytes. The affinities were determined by applying a 1:1 binding model.

recombinant LILRB1 ECD [2] = target: T1, recombinant LILRB1 ECD; assay: BLI, IgG on AHC sensor, ECD in solution
Method: as §2

recombinant LILRA3 = target: T3, recombinant LILRA3 (human, UniProt Q8N6C8 24-439); assay: BLI, IgG on AHC sensor, ECD in solution
T3 construct: whole entry named; also called LILRA3 ECD; LILA3
T3 sequence (Q8N6C8 24-439 limits assumed): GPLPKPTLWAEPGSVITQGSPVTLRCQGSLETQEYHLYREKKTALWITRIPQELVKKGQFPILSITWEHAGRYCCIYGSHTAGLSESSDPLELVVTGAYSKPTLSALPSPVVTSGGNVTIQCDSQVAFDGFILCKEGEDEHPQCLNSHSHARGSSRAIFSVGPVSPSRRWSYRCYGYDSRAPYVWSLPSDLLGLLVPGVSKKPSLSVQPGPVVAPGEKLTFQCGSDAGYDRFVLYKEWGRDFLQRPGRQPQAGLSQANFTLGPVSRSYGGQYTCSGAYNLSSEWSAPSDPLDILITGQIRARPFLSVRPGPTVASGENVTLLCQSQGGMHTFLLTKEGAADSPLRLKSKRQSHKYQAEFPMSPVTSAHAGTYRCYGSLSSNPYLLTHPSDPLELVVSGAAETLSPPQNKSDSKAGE
Method: as §2

recombinant LILRB2 ECD [3] = target: T4, recombinant LILRB2 ECD (human, UniProt Q8N423 22-460); assay: ELISA, LILRB2 ECD binding to HLA-G-Fc
T4 construct: also called biotinylated LILRB2 ECD
T4 sequence (Q8N423 22-460 limits assumed): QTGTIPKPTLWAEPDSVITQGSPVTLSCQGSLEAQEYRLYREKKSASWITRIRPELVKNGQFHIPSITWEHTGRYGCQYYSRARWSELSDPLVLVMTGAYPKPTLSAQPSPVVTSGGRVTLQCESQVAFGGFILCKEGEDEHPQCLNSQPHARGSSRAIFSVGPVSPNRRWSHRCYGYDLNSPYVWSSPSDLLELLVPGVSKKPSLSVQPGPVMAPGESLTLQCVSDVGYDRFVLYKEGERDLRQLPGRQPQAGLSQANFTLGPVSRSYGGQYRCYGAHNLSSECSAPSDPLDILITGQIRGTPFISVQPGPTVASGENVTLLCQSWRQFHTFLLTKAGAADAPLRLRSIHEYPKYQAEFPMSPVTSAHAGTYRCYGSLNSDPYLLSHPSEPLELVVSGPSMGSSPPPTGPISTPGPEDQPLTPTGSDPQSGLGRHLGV
Method: as §1

recombinant LILRB2 ECD [4] = target: T4, recombinant LILRB2 ECD; assay: BLI, IgG on AHC sensor, ECD in solution
Method: as §2

T1 sequence (Q8NHL6 24-461 limits assumed): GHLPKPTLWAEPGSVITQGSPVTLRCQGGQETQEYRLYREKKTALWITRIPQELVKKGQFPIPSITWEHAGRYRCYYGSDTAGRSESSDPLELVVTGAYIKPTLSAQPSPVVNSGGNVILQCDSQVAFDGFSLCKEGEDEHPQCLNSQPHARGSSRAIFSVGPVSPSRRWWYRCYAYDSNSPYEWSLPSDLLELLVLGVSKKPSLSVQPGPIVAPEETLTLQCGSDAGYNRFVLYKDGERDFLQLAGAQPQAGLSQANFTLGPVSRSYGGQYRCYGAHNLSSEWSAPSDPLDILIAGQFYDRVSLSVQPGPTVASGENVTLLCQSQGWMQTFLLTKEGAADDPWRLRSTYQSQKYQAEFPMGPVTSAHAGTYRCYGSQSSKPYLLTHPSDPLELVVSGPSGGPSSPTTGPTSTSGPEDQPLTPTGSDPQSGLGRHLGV

Molecule | IC50 (recombinant LILRB1 ECD [1]) [nM] | Kd (recombinant LILRA1 ECD) [nM] | Kd (recombinant LILRB1 ECD [2]) [nM] | Kd (recombinant LILRA3) [nM] | IC50 (recombinant LILRB2 ECD [3]) [nM] | Kd (recombinant LILRB2 ECD [4]) [nM] | binding result (recombinant LILRA1 ECD)
A-001 (antibody, V domains shown, tested as IgG; also called parental antibody A-001) VH: QVQLVQSGAEVKKPGSSVKVSCKASGGTFSSYAISWVRQAPGQGLEWMGGIIPIFGTANYAQKFQGRVTITADESTSTAYMELSSLRSEDTAVYYCAKDLGTYSSGWPYYYGMDVWGQGTTVTVSS VL: SYELTQPPSVSVSPGQTASITCSGDKLGDKYASWYQQKPGQSPVLVIYQDSKRPSGIPERFSGSNSGNTATLTISGTQAEDEADYYCQSTTHTSFVFGGGTKLTVL | 5.1 | 1820 | 157 | 576 | 3.1 | 36.4 | –
A-046 (antibody, V domains shown, tested as IgG) VH: QVQLVQSGAEVKKPGSSVKVSCKASGGSFQSYAINWVRQAPGQGLEWMGGIIPGFSTANYAQKFQGRVTITADESTSTAYMELSSLRSEDTAVYYCAKDLGTYSSGWPYYYGMDVWGQGTTVTVSS VL: SYELTQPPSVSVSPGQTASITCSGDKLGDKYASWYQQKPGQSPVLVIYQDSKRPSGIPERFSGSNSGNTATLTISGTQAEDEADYYCQLTHLTIYVFGGGTKLTVL | 2 | – | 12.6 | – | 3.7 | 9.4 | no binding (tested: 900 nM)
A-007 (antibody, V domains shown, tested as IgG) VH: QVQLVQSGAEVKKPGSSVKVSCKASGGSFREYAFSWVRQAPGQGLEWMGSIIPTFHTSNYAGKFQGRVTITADESTSTAYMELSSLRSEDTAVYYCAKDLGTYSSGWPYYYGMDVWGQGTTVTVSS VL: SYELTQPPSVSVSPGQTASITCSGDKLGDKYASWYQQKPGQSPVLVIYQDSKRPSGIPERFSGSNSGNTATLTISGTQAEDEADYYCQSTTHTSFVFGGGTKLTVL | 3.3 | 322 | 11.7 | 255 | 3.6 | 1.2 | –
A-010 (antibody, V domains shown) VH: QVQLVQSGAEVKKPGSSVKVSCKASGGTFQSQAFAWVRQAPGQGLEWMGSIIPGFSTANYAQKFQGRVTITADESTSTAYMELSSLRSEDTAVYYCAKDLGTYSSGWPYYYGMDVWGQGTTVTVSS VL: SYELTQPPSVSVSPGQTASITCSGDKLGDKYASWYQQKPGQSPVLVIYQDSKRPSGIPERFSGSNSGNTATLTISGTQAEDEADYYCQSTTHTSFVFGGGTKLTVL | 4.1 | 760 | 4.5 | 217 | 3.7 | 3.3 | –
A-036 (antibody, V domains shown, tested as IgG) VH: QVQLVQSGAEVKKPGSSVKVSCKASGGTFSSYAISWVRQAPGQGLEWMGGIIPIFGTANYAQKFQGRVTITADESTSTAYMELSSLRSEDTAVYYCAKDLGTYSSGWPYYYGMDVWGQGTTVTVSS VL: SYELTQPPSVSVSPGQTASITCSGDKLGDKYASWYQQKPGQSPVLVIYQDSKRPSGIPERFSGSNSGNTATLTISGTQAEDEADYYCQLTHLTIYVFGGGTKLTVL | 1.2 | 42900 | 35.8 | – | 2.7 | 18.6 | –
A-004 (antibody, V domains shown, tested as IgG) VH: QVQLVQSGAEVKKPGSSVKVSCKASGGTFRTKAIAWVRQAPGQGLEWMGGIIPIFSTANYAPKFQGRVTITADESTSTAYMELSSLRSEDTAVYYCAKDLGTYSSGWPYYYGMDVWGQGTTVTVSS VL: SYELTQPPSVSVSPGQTASITCSGDKLGDKYASWYQQKPGQSPVLVIYQDSKRPSGIPERFSGSNSGNTATLTISGTQAEDEADYYCQSTTHTSFVFGGGTKLTVL | 4.4 | 569 | 12.8 | 232 | 4.5 | 7.1 | –
A-022 (antibody, V domains shown, tested as IgG) VH: QVQLVQSGAEVKKPGSSVKVSCKASGGTFGGSAISWVRQAPGQGLEWMGGIVLAYSTSVYAQKFQGRVTITADESTSTAYMELSSLRSEDTAVYYCAKGPPVGSSSWYTDWYFDLWGRGTLVTVSS VL: SYELTQPPSVSVSPGQTASITCSGDKLGDKYASWYQQKPGQSPVLVIYQDSKRPSGIPERFSGSNSGNTATLTISGTQAEDEADYYCLSYGAHSHGVVFGGGTKLTVL | 3.9 | – | 5.2 | 317 | 3.1 | 4.4 | –

Continued by falling IC50 (recombinant LILRB1 ECD [1]), values first:

IC50 (recombinant LILRB1 ECD [1]) [nM] | Kd (recombinant LILRA1 ECD) [nM] | Kd (recombinant LILRB1 ECD [2]) [nM] | Kd (recombinant LILRA3) [nM] | IC50 (recombinant LILRB2 ECD [3]) [nM] | Kd (recombinant LILRB2 ECD [4]) [nM] | binding result (recombinant LILRA1 ECD) | Molecule
6.1 | 470 | 9.3 | 137 | 5.5 | 4.4 | – | A-011 (antibody, V domains shown, tested as IgG) VH: QVQLVQSGAEVKKPGSSVKVSCKASGGSFSHSAFSWVRQAPGQGLEWMGSIIPAFYTANYAQKFQGRVTITADESTSTAYMELSSLRSEDTAVYYCAKDLGTYSSGWPYYYGMDVWGQGTTVTVSS VL: SYELTQPPSVSVSPGQTASITCSGDKLGDKYASWYQQKPGQSPVLVIYQDSKRPSGIPERFSGSNSGNTATLTISGTQAEDEADYYCQSTTHTSFVFGGGTKLTVL
6.1 | 190 | 0.5 | 182 | 4.8 | 2.3 | – | A-006 (antibody, V domains shown, tested as IgG) VH: QVQLVQSGAEVKKPGSSVKVSCKASGGTFSQYAFSWVRQAPGQGLEWMGSIIPGFTTSNYAHKFQGRVTITADESTSTAYMELSSLRSEDTAVYYCAKDLGTYSSGWPYYYGMDVWGQGTTVTVSS VL: SYELTQPPSVSVSPGQTASITCSGDKLGDKYASWYQQKPGQSPVLVIYQDSKRPSGIPERFSGSNSGNTATLTISGTQAEDEADYYCQSTTHTSFVFGGGTKLTVL
5.5 | 194 | 3.7 | 92.8 | 5.5 | 3.4 | – | A-009 (antibody, V domains shown, tested as IgG) VH: QVQLVQSGAEVKKPGSSVKVSCKASGGTFSVTAILWVRQAPGQGLEWMGGIIPSFTSANYASKFQGRVTITADESTSTAYMELSSLRSEDTAVYYCAKDLGTYSSGWPYYYGMDVWGQGTTVTVSS VL: SYELTQPPSVSVSPGQTASITCSGDKLGDKYASWYQQKPGQSPVLVIYQDSKRPSGIPERFSGSNSGNTATLTISGTQAEDEADYYCQSTTHTSFVFGGGTKLTVL
5 | 407 | 1 | 161 | 4.3 | 3.3 | – | A-005 (antibody, V domains shown, tested as IgG) VH: QVQLVQSGAEVKKPGSSVKVSCKASGGTFTIYAINWVRQAPGQGLEWMGGIIPGFHSANYAQKFQGRVTITADESTSTAYMELSSLRSEDTAVYYCAKDLGTYSSGWPYYYGMDVWGQGTTVTVSS VL: SYELTQPPSVSVSPGQTASITCSGDKLGDKYASWYQQKPGQSPVLVIYQDSKRPSGIPERFSGSNSGNTATLTISGTQAEDEADYYCQSTTHTSFVFGGGTKLTVL
4.1 | 1520 | 7.4 | 355 | 4 | 8.8 | – | A-008 (antibody, V domains shown, tested as IgG) VH: QVQLVQSGAEVKKPGSSVKVSCKASGGTFAESAILWVRQAPGQGLEWMGGIVPSFYSANYAQKFQGRVTITADESTSTAYMELSSLRSEDTAVYYCAKDLGTYSSGWPYYYGMDVWGQGTTVTVSS VL: SYELTQPPSVSVSPGQTASITCSGDKLGDKYASWYQQKPGQSPVLVIYQDSKRPSGIPERFSGSNSGNTATLTISGTQAEDEADYYCQSTTHTSFVFGGGTKLTVL
3.8 | 1270 | 16 | – | 3.5 | 2 | – | A-037 (antibody, V domains shown, tested as IgG) VH: QVQLVQSGAEVKKPGSSVKVSCKASGGTFSSYAISWVRQAPGQGLEWMGGIIPIFGTANYAQKFQGRVTITADESTSTAYMELSSLRSEDTAVYYCARVHLYYHFPASYFDYWGQGTLVTVSS VL: SYELTQPPSVSVSPGQTASITCSGDKLGDKYASWYQQKPGQSPVLVIYQDSKRPSGIPERFSGSNSGNTATLTISGTQAEDEADYYCLASLGTGGVYVFGGGTKLTVL
3.3 | 469 | 12.8 | 166 | 3.8 | 6.8 | – | A-012 (antibody, V domains shown, tested as IgG) VH: QVQLVQSGAEVKKPGSSVKVSCKASGGTISEYAFLWVRQAPGQGLEWMGGIIPKFHTANYAQKFQGRVTITADESTSTAYMELSSLRSEDTAVYYCAKDLGTYSSGWPYYYGMDVWGQGTTVTVSS VL: SYELTQPPSVSVSPGQTASITCSGDKLGDKYASWYQQKPGQSPVLVIYQDSKRPSGIPERFSGSNSGNTATLTISGTQAEDEADYYCQSTTHTSFVFGGGTKLTVL
1.8 | 15.1 | 6.9 | 39.4 | – | – | – | Ref051 [BND-22, LILRB1 specific] (antibody)
